Data set [1] has as its target T1, Trm10 (Saccharomyces cerevisiae, UniProt Q12400).
T1 construct: full-length, N-terminal 6xHis tag, plasmid pJEJ12-3, expressed in E. coli BL21(DE3) pLysS; monomer (printed PDB 4JWJ covers the C-terminal domain only)
T1 sequence (Q12400 1-293): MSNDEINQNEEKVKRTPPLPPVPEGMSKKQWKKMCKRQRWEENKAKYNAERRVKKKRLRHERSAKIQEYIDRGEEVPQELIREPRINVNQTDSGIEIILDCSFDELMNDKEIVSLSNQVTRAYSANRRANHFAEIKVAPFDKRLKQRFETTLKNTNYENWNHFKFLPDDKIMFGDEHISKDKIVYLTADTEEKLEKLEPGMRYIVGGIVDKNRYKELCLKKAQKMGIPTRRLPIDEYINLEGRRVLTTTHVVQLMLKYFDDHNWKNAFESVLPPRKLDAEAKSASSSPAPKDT
In words: electrospray mass spectrometry of RNase T1 fragments (+[…] Da adduct). Type of data set: biochemical. To be noted: cosubstrate with tRNA-Gly-GCC; 1 h, 37 °C; covalent to tRNA G9, not to the enzyme.

Data set [2] relates to Trm10-KRR (Saccharomyces cerevisiae). In words: fluorescence anisotropy. The settings on record: unmodified transcript, FA: 15 nM labeled tRNA, 50-300 nM enzyme, 30 min at room temperature, buffer as in ref 17 (not given), EMSA: 4 uM tRNA, 0-10 uM protein, 30 C 30 min.
Data set [3] relates to Trm10 (wild type) (Saccharomyces cerevisiae). The experiment in a line: fluorescence anisotropy. To be noted: unmodified transcript, FA: 15 nM labeled tRNA, 50-300 nM enzyme, 30 min at room temperature, buffer as in ref 17 (not given), EMSA: 4 uM tRNA, 0-10 uM protein, 30 C 30 min. In general terms: In fluorescence polarisation assays a small probe gives low polarisation when free and higher when bound to something large.

Structures can show the parent of a compound that is named as a salt.

Turning to `Nc1ncnc2c1ncn2[C@@H]1O[C@H](CN(CCI)CC[C@H](N)C(=O)O)[C@@H](O)[C@H]1O` [NM6, 5′-(diaminobutyric acid)-N-iodoethyl-5′-deoxyadenosine ammoniumhydrochloride], the “electrospray mass spectrometry of RNase T1 fragments (+393 Da adduct)” value in data set [1] was “NM6 was confirmed to be a suitable cosubstrate for tRNA modification by Trm10 using mass spectrometry”.

For the compound tRNAGly-GCC, 5'-fluorescein transcript, the Kd in data set [2] turned out to be 34 nM; in data set [3] (separate data set, differs from Fig 4C), 100 nM; in data set [3] it was 20 nM.

tRNALeu-CAA, FA transcript yielded a Kd in data set [3] of 38 nM.

On to tRNAVal-UAC, FA transcript, for which the Kd in data set [3] turned out to be 96 nM.

One may read the Kd as the free concentration of one partner at which half of the binding sites on the other are occupied at equilibrium, for simple one-to-one binding.

(Values after article PMC10704376, “tRNA m^1G9 modification depends on substrate-specific RNA conformational changes induced by the methyltransferase Trm10” (The Journal of Biological Chemistry, 2023).)
